Residue numbers refer to the chain shown, from its start.
What was measured:
human galectin-10-His [1] = molecular target: T1, human galectin-10-His (human); test: SPR Biacore T3000, mouse IgG1 captured
T1 construct: The last M of the tag may be Met1 of galectin-10; also called humanGal10-His; hGal10
T1 chain: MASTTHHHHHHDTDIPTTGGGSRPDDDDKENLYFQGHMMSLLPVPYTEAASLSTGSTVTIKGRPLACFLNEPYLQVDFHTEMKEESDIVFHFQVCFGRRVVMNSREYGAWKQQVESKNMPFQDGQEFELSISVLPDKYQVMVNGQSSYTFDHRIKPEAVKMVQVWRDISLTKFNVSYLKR
Protocol: The binding capacity of the mouse IgG1 antibody panel to galectin-10 was analysed on Biacore T3000. For this purpose, a capture approach was used, where a fixed concentration (1.5 μg/mL) of the mouse IgG1 clone was captured by polyclonal anti-mouse Fc antibodies immobilized on CM5 Chip to reach a binding signal around 150 RU. Then a serial dilution of human and cynomolgus WGS isoform of galectin-10-His (serial dilution, 1 over 2 from 5 μg/mL) diluted in HBS-EP pH7.4 was injected. Raw data were analysed via BIA evaluation software with a blank subtraction. The kd/KD and Rmax of each mAbs to galectin-10-His was determined using the Fit Kinetics simultaneous ka/kd/Binding with mass transfer/Local Rmax on BIA evaluation software.

[2] = molecular target: T2, recombinant human galectin-10, TEV-cleaved (human, UniProt Q05315 1-142); test: cell-based or functional assay
T2 sequence: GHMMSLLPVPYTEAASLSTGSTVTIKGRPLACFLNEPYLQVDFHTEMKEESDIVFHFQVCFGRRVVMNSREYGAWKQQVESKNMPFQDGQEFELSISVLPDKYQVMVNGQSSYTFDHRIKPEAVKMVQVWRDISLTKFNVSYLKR

[3] = molecular target: T3, cynomolgus galectin-10-His, WGS isoform (cynomolgus); test: ELISA, coated antigen 0.5 ug/mL
T3 construct: also called cynoGal10-WGS; not shown: His tag
T3 chain: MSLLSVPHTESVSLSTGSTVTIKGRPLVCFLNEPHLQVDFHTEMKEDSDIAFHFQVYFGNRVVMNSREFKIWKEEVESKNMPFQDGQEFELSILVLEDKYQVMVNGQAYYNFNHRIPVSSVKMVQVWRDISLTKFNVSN
Protocol: (§1) In a similar setup to that used during the characterization of the scFv-human Fc molecules, the relative binding properties of the 7 mouse IgG1 antibodies were analyzed by ELISA. A Maxisorp plate was coated overnight with 0.5 μg/mL of human or cynomolgus WGS or YRT isoform of galectin-10-His. Then a serial dilution of each clone (from 100 nM, dilution 1/4, 12 points of dilutions) was incubated on coated galectin-10. After several washing steps, detection of the bound mouse IgG1 was carried out with an anti-mouse Fc-HRP antibody (DAMPO, Jackson ImmunoResearch, Catalog 715-035-150). Absorbance was measured at 450 nm (reference at 620 nm) with Tecan instrument. The raw data (OD values) were plotted on GraphPad Prism 7.01. The EC50 values for each antibody, calculated with a non-linear regression (log(agonist) vs. response Variable slope (four parameters)), are shown in the table below. Antibody 1D11 from the previous panel was included for comparison.

human galectin-10-His [4] = molecular target: T1, human galectin-10-His; test: ELISA, coated antigen 0.5 ug/mL
Protocol: as §1

[5] = molecular target: T2, recombinant human galectin-10, …; test: cell-based or functional assay; remark: listed apart in the source
human galectin-10-His [6] = molecular target: T1, human galectin-10-His; test: ELISA, galectin-10-His coated at 1 ug/mL, Fab
Protocol: The binding capacity of the lead anti-galectin-10 Fabs was tested by binding ELISA. Briefly, a Maxisorp plate was coated overnight with 1 μg/mL of human galectin-10-His. Then a serial dilution of each clone (from 4 μM, dilution 1/4, 12 points of dilutions) was incubated on coated galectin-10. After several washing steps, detection of the bound Fab was carried out with an anti-human IgG Fab specific-peroxidase. Absorbance was measured at 450 nm (reference at 620 nm) with Tecan instrument.

[7] = molecular target: T4, human galectin-10-His (recombinant human galectin-10 with TEV-cleavable N-terminal His-tag) (human); test: BLI tandem on galectin-10-His; competitor: saturating 6A08 mIgG1 (10 ug/mL)
T4 construct: SEC-MALLS: dimer in solution; also called Gal10-His; humanGal10-His
T4 chain: T1 chain
Protocol: (§2) In order to identify the galectin-10 binding sites of the different clones, an epitope mapping method (TANDEM), using the BLI technology, was established. Briefly, the galectin-10-His was captured on anti-HIS 1K sensor tips, before incubation with an excess of one antibody (called the “saturating” antibody) then directly transferred to a solution containing the “competitor” antibody at a suboptimal concentration. If the “saturating” and the competitor antibody bind to the same binding sites, no binding of “competitor” will be detected (expressed in nm shift).

[8] = molecular target: T4, human galectin-10-His (recombinant …); test: BLI tandem on galectin-10-His; competitor: saturating 6A05 mIgG1 (10 ug/mL)
Protocol: as §2

[9] = molecular target: T4, human galectin-10-His (recombinant …); test: BLI tandem on galectin-10-His; competitor: saturating 2F09 mIgG1 (10 ug/mL)
Protocol: as §2

[10] = molecular target: T4, human galectin-10-His (recombinant …); test: BLI tandem on galectin-10-His; competitor: saturating 1C09 mIgG1 (10 ug/mL)
Protocol: as §2

[11] = molecular target: T4, human galectin-10-His (recombinant …); test: BLI tandem on galectin-10-His; competitor: saturating 6F06 mIgG1 (10 ug/mL)
Protocol: as §2

[12] = molecular target: T4, human galectin-10-His (recombinant …); test: BLI tandem on galectin-10-His; competitor: saturating 2C07 mIgG1 (10 ug/mL)
Protocol: as §2

[13] = molecular target: T5, TEV-cleaved wild-type recombinant human galectin-10 (soluble, in Fab complexes, or as recombinant galectin-10 … (human, UniProt Q05315 1-142)); test: cell-based or functional assay
T5 sequence: T2 sequence

[14] = molecular target: T4, human galectin-10-His (recombinant …); test: BLI tandem on galectin-10-His; competitor: saturating 1D11 mIgG1 (10 ug/mL)
Protocol: as §2

[15] = molecular target: T4, human galectin-10-His (recombinant …); test: BLI tandem on galectin-10-His; isotype control as saturating antibody (10 ug/mL)
Protocol: as §2

[16] = molecular target: T4, human galectin-10-His (recombinant …); test: ELISA, mouse IgG1 on coated galectin-10-His (0.2 ug/mL)
Protocol: In a similar setup to that used during the characterization of the scFv-human Fc molecules, the relative binding affinities of the 10 mouse IgG1 antibodies were analyzed by ELISA. A Maxisorp plate was coated overnight with 0.2 μg/mL of galectin-10-His. Then a serial dilution of each clone (from 100 nM, dilution 1/4, 12 points of dilutions) was incubated on coated galectin-10. After several washing steps, detection of the bound mouse IgG1 was carried out with an anti-mouse Fc-HRP antibody. Absorbance was measured at 450 nm (reference at 620 nm) with Tecan instrument. A mouse IgG1 isotype control was used as negative control. A polyclonal anti-galectin-10 antibody was used as positive control for the coating of galectin-10. The raw data (OD values) were plotted on GraphPad Prism 7.01. The EC50 values for each antibody, calculated with a non-linear regression (log(agonist) vs. response Variable slope (four parameters)), are reported in Table 7 below.

[17] = molecular target: T4, human galectin-10-His (recombinant …); test: BLI tandem on galectin-10-His; competitor: saturating 6B06 mIgG1 (10 ug/mL)
Protocol: as §2

[18] = molecular target: T4, human galectin-10-His (recombinant …); test: SPR Biacore T3000, mouse IgG1 captured by anti-mouse Fc, galectin-10-His as analyte
Protocol: The binding capacity of the mouse IgG1 antibodies to galectin-10 was analyzed on Biacore T3000. For this purpose, a capture approach was set up. A CM5 Chip was coated with polyclonal anti-mouse Fc at 8000 RU, then a fixed concentration of the mouse IgG1 antibody panel (1.5 μg/mL), diluted in HBS-EP pH7.4, was captured to reach a binding signal around 150 RU. Finally, a serial dilution of galectin-10-His (serial dilution, 1 over 2 from 5 μg/mL) diluted in HBS-EP pH7.4 was injected. Raw data were analyzed via BIA evaluation software with a blank subtraction (4-3). The kd/KD and Rmax of each mAb to galectin-10-His was determined using the Fit Kinetics simultaneous ka/kd/Binding with mass transfer/Local Rmax on BIA evaluation software.

[19] = molecular target: T4, human galectin-10-His (recombinant …); test: BLI tandem on galectin-10-His; competitor: saturating 4E08 mIgG1 (10 ug/mL)
Protocol: as §2

[20] = molecular target: T4, human galectin-10-His (recombinant …); test: BLI tandem on galectin-10-His; competitor: saturating 6E10 mIgG1 (10 ug/mL)
Protocol: as §2

B1: 1D11 mouse IgG1 (antibody, V domains shown)
VH: QVQLVESGGGLVQPGGSLRLSCAASGFTFDDYAMSWVRQAPGKGLEWVSGISWNGGSTYYAESMKGRFTISRDNAKNTLYLQMNSLKSEDTAVYYCAKDRNLGYRLGYPYDYWGQGTQVTVSS
VL: QSVLTQPPSVSGSPGETVTISCAGTSSDVGYGNYVSWYQQLPGMAPRLLIYEVNKRASGITDRFSGSKSGNTASLTISGLQSEDEGDYYCASYRSSNNAVFGGGTHLTVL
notes: Llama VH and VL on mouse IgG1 heavy chain constant domains (CH1-CH2-CH3) and mouse lambda light chain constant domain; also called 1D011; 1D11 mIgG1
- Kd (human galectin-10-His [1]): 0.7 nM
- koff (human galectin-10-His [1]): 0.00931 s⁻¹
- kon (human galectin-10-His [1]): 1.27e+07 M⁻¹ s⁻¹
- 50% dissolution (min) of CLCs, antibody 50 uM [2]: 30.1 min
- 90% dissolution (min) of CLCs, antibody 50 uM [2]: 56.7 min
- OD values [3]: 0.05 OD
- binding result [3]: no binding (tested: serial dilution from 100 nM)
- EC50 (human galectin-10-His [4]): 0.1 nM
- OD values (human galectin-10-His [4]): 2 OD
- 50% crystal dissolution (min), 50 uM [5]: 100 min
- 90% crystal dissolution (min), 50 uM [5]: > 120 min

B2: 1D11 Fab (Fab, V domains shown)
VH: B1 VH
VL: B1 VL
notes: Fab with human CH1 (including part of the hinge region) and human lambda constant domain; also called Fab-1D11; 1D11 hFab
- Bmax (human galectin-10-His [6]): 1.59 OD
- EC50 (human galectin-10-His [6]): 1.4 nM
- 50% crystal dissolution (min), 50 uM [5]: 33.4 min
- 90% crystal dissolution (min), 50 uM [5]: 97.8 min

B3: 2F09 mouse IgG1 (antibody, V domains shown)
VH: QVQVQESGPGLVKPSQTLSLTCTVSGGSITTNYFYWSWIRQSPGKGLEWIGAIAYSGRTYYSPSLKSRTSISRDTSNNQFTLQLSSVTPEDTAVYYCARGPKGLASYYDYWGQGTQVTVSS
VL: SSALTQPSAVSVSLGQTARITCQGGNFGYYYVSWYQQKPGQAPVLVIYRDSGRPSGIPERFSGSSSGDTATLTISGAQAEDEADYYCQSGSSSDNTVFGGGTHLTVL
notes: VH on mouse IgG1 heavy chain constant domains (CH1-CH2-CH3), VL on mouse lambda light chain constant domain; also called 2F09 mIgG1
- binding signal (nm) [7]: 0.07 nm
- binding signal (nm) [8]: 0.12 nm
- binding signal (nm) [9]: 0.03 nm
- binding signal (nm) [10]: 0.04 nm
- binding signal (nm) [11]: 0.06 nm
- binding signal (nm) [12]: 0.05 nm
- 100% Solubilization of CLC (Conc uM) [13]: 10.7 µM
- binding signal (nm) [14]: 0.12 nm
- binding signal (nm) [15]: 1.14 nm
- Bmax [16]: 3.29 OD
- EC50 [16]: 0.05 nM
- binding signal (nm) [17]: 0.03 nm
- Kd [18]: 0.3 nM
- koff [18]: 0.00034 s⁻¹
- binding signal (nm) [19]: 0.1 nm
- binding signal (nm) [20]: 0.03 nm

B4: 11F02 Fab (Fab, V domains shown)
VH: ELQVVESGGGLVQPGGSLRLSCAASGFTFSTNYMNWVRQAPGKGLEWVSGITSHGARTYYADSVKGRFTISRDNSKNTLYLQMNSLKPEDTALYYCARTDHASLDAWGQGTLVTVSS
VL: QTVVTQEPSLSVSPGGTVTLTCGLSSGSVTSSNYPGWYQQKPGQAPRTLIYNTNSRYSGVPNRFSGSISGNKAALTITGAQPEDEADYYCALYMGSSSYNTVFGGGTHLTVL
notes: Fab with human CH1 (including part of the hinge region) and human lambda constant domain; also called 11F02 hFab
- Bmax (human galectin-10-His [6]): 0.46 OD
- EC50 (human galectin-10-His [6]): 81.4 nM
- 50% crystal dissolution (min), 50 uM [5]: 77.9 min
- 90% crystal dissolution (min), 50 uM [5]: > 120 min

B5: 11F12 Fab (Fab, V domains shown)
VH: B4 VH with E1Q, L2V, V4L, V5Q, H54G, A56G, S75A, S103W
VL: HSAVTQPPSVSGTLGKTVTISCAGTSSDVGYGNYVSWYQHLPGTAPKLLIYAVSTRASGVPDRFSGSKSGNTASLTISGLQSEDEGDYYCASYSVRNNVVFGGGTRLTVL
notes: Fab with human CH1 (including part of the hinge region) and human lambda constant domain; also called 11F12 hFab
- Bmax (human galectin-10-His [6]): 1.38 OD
- EC50 (human galectin-10-His [6]): 22.4 nM
- 50% crystal dissolution (min), 50 uM [5]: 62 min
- 90% crystal dissolution (min), 50 uM [5]: > 120 min

— US20190367619A1 (ARGENX, published 2019)
